Measured values: patent US20240116985A1 (published 2024)
Starred links: 1 amine or outer side, 2 acyl side, 3 side chain; linkers in the order of their positions; H or OH if unused. Positions of bridges follow the written chain, without caps; N, C: chain ends. Non-standard residues stand in square brackets, D forms with d. Primed or numbered codes have the meaning given here. B5(29) = 2-amino-2-(pent-4-en-1-yl)hept-6-enoic acid (2,2-bis(4-pentenyl)glycine), stitching residue bearing both staples, C=CCCCC(CCCC=C)(N[*:1])C(=O)[*:2]; PyrS2″ = (S)-3-amino-1-((pent-4-en-1-yloxy)carbonyl)pyrrolidine-3-carboxylic acid (stapling residue), C=CCCCOC(=O)N1CC[C@@](N[*:1])(C(=O)[*:2])C1; B5(5) = 2,2-bis(4-pentenyl)glycine, 2-amino-2-(pent-4-en-1-yl)hept-6-enoic acid (stitching residue), C=CCCCC(CCCC=C)(N[*:1])C(=O)[*:2]; B5(6) = 2-amino-2-(pent-4-en-1-yl)hept-6-enoic acid (bis(4-pentenyl)glycine), stitching residue, C=CCCCC(CCCC=C)(N[*:1])C(=O)[*:2]; TfeGA = (S)-2-amino-3-((carboxymethyl)(2,2,2-trifluoroethyl)amino)propanoic acid, O=C([C@H](CN(CC(=O)[*:3])CC(F)(F)F)N[*:1])[*:2]; PyrS2 = (S)-3-amino-1-((pent-4-en-1-yloxy)carbonyl)pyrrolidine-3-carboxylic acid, C=CCCCOC(=O)N1CC[C@@](N[*:1])(C(=O)[*:2])C1; B5(19) = 2-amino-2-(pent-4-en-1-yl)hept-6-enoic acid (bis(4-pentenyl)glycine), C=CCCCC(CCCC=C)(N[*:1])C(=O)[*:2]; Phe(F5) = N[C@@H](Cc1c(F)c(F)c(F)c(F)c1F)C(=O)O; hLeu(5-Me) = CC(C)(C)CC[C@H](N)C(=O)O; Bta = N[C@@H](Cc1csc2ccccc12)C(=O)O; hTyr = N[C@@H](CCc1ccc(O)cc1)C(=O)O; αAllylPro = C=CC[C@@]1(C(=O)O)CCCN1; tBuAla = CC(C)(C)C[C@H](N)C(=O)O; 3Thi = N[C@@H](Cc1ccsc1)C(=O)O; Cha = N[C@@H](CC1CCCCC1)C(=O)O; S8 = C=CCCCCCC[C@](C)(N)C(=O)O; PyrS2(4) = not defined here; TfeGA″ = not defined here; hSer = N[C@@H](CCO)C(=O)O

T1: B-cat-Halo (UniProt P35222 2-781)
T1 sequence (looked up): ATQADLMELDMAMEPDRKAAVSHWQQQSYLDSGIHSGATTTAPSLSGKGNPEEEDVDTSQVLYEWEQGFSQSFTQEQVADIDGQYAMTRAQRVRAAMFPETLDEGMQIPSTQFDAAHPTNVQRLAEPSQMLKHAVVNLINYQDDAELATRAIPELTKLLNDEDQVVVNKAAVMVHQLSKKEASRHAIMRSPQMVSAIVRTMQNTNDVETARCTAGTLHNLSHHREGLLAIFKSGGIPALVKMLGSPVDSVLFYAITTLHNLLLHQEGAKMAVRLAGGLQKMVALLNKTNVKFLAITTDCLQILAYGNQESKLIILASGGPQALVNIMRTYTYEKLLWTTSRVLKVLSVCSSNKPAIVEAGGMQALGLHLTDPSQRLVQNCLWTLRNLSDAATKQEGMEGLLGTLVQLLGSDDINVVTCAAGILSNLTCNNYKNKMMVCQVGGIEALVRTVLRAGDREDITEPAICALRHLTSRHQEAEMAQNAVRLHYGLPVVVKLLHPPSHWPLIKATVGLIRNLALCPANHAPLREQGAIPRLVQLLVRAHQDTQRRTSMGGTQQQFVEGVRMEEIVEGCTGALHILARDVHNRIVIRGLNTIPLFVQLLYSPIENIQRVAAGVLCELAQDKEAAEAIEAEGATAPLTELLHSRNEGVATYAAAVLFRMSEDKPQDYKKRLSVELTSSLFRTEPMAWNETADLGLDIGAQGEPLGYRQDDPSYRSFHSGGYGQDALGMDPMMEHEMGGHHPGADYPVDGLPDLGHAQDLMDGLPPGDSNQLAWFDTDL

T2: full-length beta-Catenin (Uniprot ID P35222) (Homo sapiens (Human), UniProt P35222 2-781)
T2 construct: No tag is stated for the FP assay; also called bCat; B-Catenin
T2 sequence: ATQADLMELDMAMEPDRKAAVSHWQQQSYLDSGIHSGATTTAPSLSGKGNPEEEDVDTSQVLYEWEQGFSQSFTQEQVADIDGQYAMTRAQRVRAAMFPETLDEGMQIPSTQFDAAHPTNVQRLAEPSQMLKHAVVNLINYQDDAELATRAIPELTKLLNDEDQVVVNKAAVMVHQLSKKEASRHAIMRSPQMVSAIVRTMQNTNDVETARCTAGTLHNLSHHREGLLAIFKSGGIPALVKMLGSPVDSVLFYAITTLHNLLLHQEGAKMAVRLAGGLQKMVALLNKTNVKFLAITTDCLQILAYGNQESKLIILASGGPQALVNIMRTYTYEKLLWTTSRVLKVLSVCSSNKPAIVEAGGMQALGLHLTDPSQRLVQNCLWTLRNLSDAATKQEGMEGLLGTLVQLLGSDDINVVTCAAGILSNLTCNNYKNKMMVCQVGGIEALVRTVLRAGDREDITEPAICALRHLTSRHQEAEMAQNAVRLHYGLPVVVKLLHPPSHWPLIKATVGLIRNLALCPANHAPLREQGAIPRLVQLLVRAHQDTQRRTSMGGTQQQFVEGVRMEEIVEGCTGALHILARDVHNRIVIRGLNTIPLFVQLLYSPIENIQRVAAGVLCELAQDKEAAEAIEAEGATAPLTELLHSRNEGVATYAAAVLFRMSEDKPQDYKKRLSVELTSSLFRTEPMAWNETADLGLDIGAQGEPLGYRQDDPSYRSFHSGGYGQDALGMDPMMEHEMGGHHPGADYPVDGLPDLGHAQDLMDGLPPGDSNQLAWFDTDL

B1: I-1772 (peptide)
peptide: Ac-[αAllylPro]D[hLeu(5-Me)][B5(5)]D[TfeGA]AAFL[PyrS2″][3Thi][Bta]Q-NH2
modifications: staple 1-4, 4-11
B2: I-1774 (peptide)
peptide: Ac-[αAllylPro]D[tBuAla][B5(5)]D[TfeGA″]AAF[Cha][PyrS2(4)][3Thi][Bta]Q-NH2
modifications: staple 1-4, 4-11; not fully specified; reading uncertain
B3: I-1773 (peptide)
peptide: Ac-[αAllylPro]D[tBuAla][B5(5)]D[TfeGA]AAF[tBuAla][PyrS2″][3Thi][Bta]Q-NH2
modifications: staple 1-4, 4-11
B4: I-1783 (peptide)
peptide: Ac-[αAllylPro]D[tBuAla][B5(19)]DYAAF[hSer][PyrS2][3Thi][Bta]Q-NH2
modifications: staple 1-4, 4-11
B5: I-1785 (peptide)
peptide: Ac-[αAllylPro]D[tBuAla][B5(19)]D[hTyr]AAFN[PyrS2][3Thi][Bta]Q-NH2
modifications: staple 1-4, 4-11
B6: I-1790 (peptide)
peptide: Ac-[αAllylPro]D[tBuAla][B5(19)]D[Phe(F5)]AAFN[PyrS2][3Thi][Bta]Q-NH2
modifications: staple 1-4, 4-11
B7: I-1793 (peptide)
peptide: Ac-[αAllylPro]D[tBuAla][B5(19)]DHAAF[hSer][PyrS2][3Thi][Bta]Q-NH2
modifications: staple 1-4, 4-11; not fully specified; printed as Ac-PL3-Asp-Npg-B5-Asp-His-Ala-Ala-Phe-Hse-PyrS2-3Thi-BztA-Gln-NH2
B8: I-1788 (peptide)
peptide: Ac-[αAllylPro]D[tBuAla][B5(19)]DWAAFN[PyrS2][3Thi][Bta]Q-NH2
modifications: staple 1-4, 4-11
B9: I-472 (peptide)
peptide: Ac-[αAllylPro]DI[B5(29)]DEAAFN[S8]F[Bta]H-NH2
modifications: staple 1-4, 4-11
notes: Stapled (stitched) peptide composition
B10: I-475 (peptide)
peptide: XDIXDEAAFNXFXQ
modifications: not fully specified; Ac-PL3-Asp-aIle-B5-Asp-Glu-Ala-Ala-Phe-Asn-S8-Phe-BztA-Gln-NH2; N-terminal acetyl, C-terminal amide; PL3(1)-B5(4) and B5(4)-S8(11) stapled by olefin metathesis; aIle at 3; BztA at 13
notes: Stapled peptide; this is the earlier eluting HPLC peak (staple isomer composition)
B11: I-471 (peptide)
peptide: Ac-[αAllylPro]DI[B5(6)]DEAAFQ[S8]F[Bta]H-NH2
modifications: staple 1-4, 4-11
notes: as for B9
B12: I-478 (peptide)
peptide: XDAXDEAAFNXFXH
modifications: not fully specified; Ac-PL3-Asp-Ala-B5-Asp-Glu-Ala-Ala-Phe-Asn-S8-Phe-BztA-1MeH-NH2; N-terminal acetyl, C-terminal amide; PL3(1)-B5(4) and B5(4)-S8(11) stapled by olefin metathesis; BztA at 13; 1MeH at 14
notes: as for B10
B13: I-476 (peptide)
peptide: XDIXDEAAFNXFXQ
modifications: not fully specified; Ac-PL3-Asp-aIle-B5-Asp-Glu-Ala-Ala-Phe-Asn-S8-Phe-BztA-Gln-NH2; N-terminal acetyl, C-terminal amide; PL3(1)-B5(4) and B5(4)-S8(11) stapled by olefin metathesis; aIle at 3; BztA at 13
notes: Stapled peptide; this is the later eluting HPLC peak (staple isomer composition)
B14: I-479 (peptide)
peptide: XDAXDEAAFNXFXH
modifications: not fully specified; Ac-PL3-Asp-Ala-B5-Asp-Glu-Ala-Ala-Phe-Asn-S8-Phe-BztA-1MeH-NH2; N-terminal acetyl, C-terminal amide; PL3(1)-B5(4) and B5(4)-S8(11) stapled by olefin metathesis; BztA at 13; 1MeH at 14
notes: as for B13

biological target: T1, B-cat-Halo; assay: cell-based or functional assay

Question: B1 was tested. Which “NanoBRET Abs IC50” value did it give?
Answer: The value was 6.8 µM.

Question: Which “NanoBRET Abs IC50” value does the source give for B2 here?
Answer: The value was 8.9 µM.

Question: With B3 as the binder, how does the “NanoBRET Abs IC50” value read?
Answer: The value was 8.6 µM.

Question: How did the “NanoBRET Abs IC50” value turn out when B4 was run?
Answer: The value was over 20 µM.

Question: B5 was tested. Which “NanoBRET Abs IC50” value did it give?
Answer: The value was 42.3 µM.

Question: Which “NanoBRET Abs IC50” value does the source give for B6 here?
Answer: Its value is 34.4 µM.

Question: B7 was tested. Which “NanoBRET Abs IC50” value did it give?
Answer: Its value is over 20 µM.

Question: With B8 as the binder, how does the “NanoBRET Abs IC50” value read?
Answer: Its value is 33.9 µM.

biological target: T2, full-length beta-Catenin (Uniprot ID …); assay: fluorescence polarization competition; full-length beta-catenin with 5FAM-TCF4(10-53) probe as competitor
Experimental: The plate was incubated protected from light for 60 minutes at 20° C. prior to read. Reads were performed on a CLARIOstar plate reader (BMG Labtech) in duplicate, and data were fitted to a 1:1 binding model with hill slope using an in-house script. All provided concentrations are final concentrations.

Question: How did the IC50 turn out when B9 was run?
Answer: The IC50 was 0.062 µM.

Question: With B10 as the binder, how does the IC50 read?
Answer: The IC50 was 0.102 µM.

Question: For B11, which IC50 is on record?
Answer: The IC50 was 0.052 µM.

Question: B12 was tested. Which IC50 did it give?
Answer: The IC50 was 0.071 µM.

Question: How did the IC50 turn out when B13 was run?
Answer: Its IC50 is 0.048 µM.

Question: B14 was tested. Which IC50 did it give?
Answer: The IC50 was 0.027 µM.
